This passage reports dH and stoichiometry N results from article PMC12158487, “Tracing the aggregation pathway of the scaffold protein DISC1: Structural implications for chronic mental illnesses” (Journal of Structural Biology: X, 2025).

The target of data set [1] is DISC1 C-region L807-frameshift, His6 fusion (human) (UniProt Q9NRI5). Kind of data set: ITC; 10 µM His-tagged protein alone in the 200 µL cell, 20 °C, stirred at 300 rpm; heat flow of self-association followed in real time, peak area integrated. On the technique in general: ITC needs no label: the signal is the heat of the interaction.
Data set [2] addresses T1, DISC1 C-region (WT), His6 fusion (human), Q9NRI5.
T1 chain: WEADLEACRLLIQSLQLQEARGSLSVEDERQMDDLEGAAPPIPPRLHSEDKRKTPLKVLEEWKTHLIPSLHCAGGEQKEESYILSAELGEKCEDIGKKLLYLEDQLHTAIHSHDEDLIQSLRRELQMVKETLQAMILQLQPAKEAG
Put plainly: dynamic light scattering; 10 µM protein, 20 °C, 500 µL sample, centrifuged at 21,000 x g before measurement; apparent hydrodynamic radii followed over time. Particulars: remark: other sources report otherwise.

The target in data set [3] is T1, DISC1 C-region (WT), His6 fusion …. Put plainly: ITC; 10 µM His-tagged WT-C-region alone in the cell, 30 °C; heat flow of self-association followed in real time, peak area integrated. Particulars: remark: other sources report otherwise.
The target is the same in data set [4]. Put plainly: ITC; 10 µM His-tagged protein alone in the 200 µL cell, 20 °C, stirred at 300 rpm; heat flow of self-association followed in real time, peak area integrated. Particulars: remark: other sources report otherwise.
Data set [5] concerns the molecule itself. Described as above.
Data set [6] concerns the molecule itself. Put plainly: ITC; one-week-old sample of S704C, 10 µM protein alone in the cell, 20 °C; heat flow of self-association followed in real time, peak area integrated.

Positions count from the first letter of the chain named. Names and notes keep the numbering of the source. Ends that are not written are not given here.

In the case of “DISC1 C-region L807-frameshift, His6 fusion (from UniProt Q9NRI5 691-807) (domain or fragment)”, the dH in data set [1] was -1060 kcal/mol.

B1: DISC1 C-region (WT), His6 fusion, Q9NRI5 691-836 (domain or fragment)
chain: T1 chain
What is called stoichiometry N is a count of units in the complex or per binding partner. Take B1: the stoichiometry N in data set [2] came to 4. For the same molecule, the values for the dH in data set [3] and in data set [4] were -264 kcal/mol and -547 kcal/mol, respectively.

B2: DISC1 C-region S713E, His6 fusion (domain or fragment, human, UniProt Q9NRI5 691-836, looked up)
chain: T1 chain with S23E
notes: Disrupted in schizophrenia 1 (DISC1), human, C-region, res; 691-836, numbered in the context of the full-length protein, with S713E; in the cited work it may be a phosphomimetic made by people (surmise); also called S713E C-region variant; source: E. coli BL21 (DE3) pLysE T1R, purified (Co2+-NTA)
For the molecule B2, in data set [5], the dH is -512 kcal/mol.

B3: DISC1 C-region S704C, His6 fusion (domain or fragment, human, UniProt Q9NRI5 691-836, looked up)
chain: T1 chain with S14C
notes: Disrupted in schizophrenia 1 (DISC1), human, C-region, res; 691-836, numbered in the context of the full-length protein, with S704C; also called S704C C-region; source: E. coli BL21 (DE3) pLysE T1R, purified (Co2+-NTA)
Regarding B3, the dH was -240 kcal/mol in data set [5] and -869 kcal/mol in data set [6].

B4: DISC1 β-core (717-761), His6 fusion (domain or fragment, human, UniProt Q9NRI5 717-761, looked up)
chain: EDERQMDDLEGAAPPIPPRLHSEDKRKTPLKVLEEWKTHLIPSLH
modifications: also: His6 fusion, end not given here
notes: 717-761, numbered in the context of the full-length protein; also called β-core peptide; source: E. coli BL21 (DE3) pLysE T1R, purified (Co2+-NTA)
As to B4, the dH in data set [5] is -843 kcal/mol.
